Test results as given in patent publication US20070161067A1 (STANFORD UNIVERSITY, published 2007).

Columns and labels:
Test in all cases: cell-based or functional assay
[1] = biological target: Cfluc-FKBP12, split site at amino acid position 445 of SEQ ID NO: 2 (Photinus pyralis) (UniProt P62942)
[2] = biological target: Cfluc-FKBP12, split site at amino acid position 437 of SEQ ID NO: 2 (Photinus pyralis) (UniProt P62942)
[3] = biological target: Cfluc-FKBP12, split site at amino acid position 455 of SEQ ID NO: 2 (Photinus pyralis) (UniProt P62942)
[4] = biological target: Cfluc-FKBP12, split site at amino acid position 420 of SEQ ID NO: 2 (Photinus pyralis) (UniProt P62942)
[5] = biological target: Cfluc (265-550 of SEQ ID NO: 2) (Photinus pyralis, UniProt P08659 265-550 = luciferase)
[6] = biological target: Cfluc (437-550 of SEQ ID NO: 2) (Photinus pyralis, UniProt P08659 438-550 = luciferase)
[7] = biological target: Cfluc (300-550 of SEQ ID NO: 2) (Photinus pyralis, UniProt P08659 300-550 = luciferase)
[8] = biological target: Cfluc (445-550 of SEQ ID NO: 2) (Photinus pyralis, UniProt P08659 446-550 = luciferase)
[9] = biological target: Cfluc (245-550 of SEQ ID NO: 2) (Photinus pyralis, UniProt P08659 245-550 = luciferase)
[10] = biological target: T1, Cfluc (500-550 of SEQ ID NO: 2) (Photinus pyralis, UniProt P08659 501-550 = luciferase)
T1 chain: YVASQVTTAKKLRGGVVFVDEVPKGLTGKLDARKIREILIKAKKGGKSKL

Sequence of Cfluc-FKBP12, split site at amino acid position 437 of SEQ ID NO: 2 (Photinus pyralis) (P62942 other isoform, or with tags, fused parts or gaps limits assumed): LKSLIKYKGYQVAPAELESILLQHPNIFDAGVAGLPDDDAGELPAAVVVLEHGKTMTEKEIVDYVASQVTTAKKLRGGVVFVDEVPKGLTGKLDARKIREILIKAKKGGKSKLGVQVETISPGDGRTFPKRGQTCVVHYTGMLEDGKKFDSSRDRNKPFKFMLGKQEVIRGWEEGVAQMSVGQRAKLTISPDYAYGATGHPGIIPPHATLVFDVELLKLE
Sequence of Cfluc-FKBP12, split site at amino acid position 445 of SEQ ID NO: 2 (Photinus pyralis) (P62942 other isoform, or with tags, fused parts or gaps limits assumed): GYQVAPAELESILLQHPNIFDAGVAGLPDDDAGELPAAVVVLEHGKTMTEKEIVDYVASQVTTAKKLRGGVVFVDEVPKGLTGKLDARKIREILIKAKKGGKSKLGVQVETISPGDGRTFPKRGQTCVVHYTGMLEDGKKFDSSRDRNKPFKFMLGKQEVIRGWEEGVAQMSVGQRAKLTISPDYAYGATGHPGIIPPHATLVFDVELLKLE
Sequence of Cfluc-FKBP12, split site at amino acid position 455 of SEQ ID NO: 2 (Photinus pyralis) (P62942 other isoform, or with tags, fused parts or gaps limits assumed): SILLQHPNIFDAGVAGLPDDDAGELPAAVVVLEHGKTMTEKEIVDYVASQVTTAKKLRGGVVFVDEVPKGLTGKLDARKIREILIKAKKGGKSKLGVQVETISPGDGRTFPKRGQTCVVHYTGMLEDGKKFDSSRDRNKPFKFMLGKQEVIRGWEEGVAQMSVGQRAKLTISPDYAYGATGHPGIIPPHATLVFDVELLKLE
Sequence of Cfluc-FKBP12, split site at amino acid position 420 of SEQ ID NO: 2 (Photinus pyralis) (P62942 other isoform, or with tags, fused parts or gaps limits assumed): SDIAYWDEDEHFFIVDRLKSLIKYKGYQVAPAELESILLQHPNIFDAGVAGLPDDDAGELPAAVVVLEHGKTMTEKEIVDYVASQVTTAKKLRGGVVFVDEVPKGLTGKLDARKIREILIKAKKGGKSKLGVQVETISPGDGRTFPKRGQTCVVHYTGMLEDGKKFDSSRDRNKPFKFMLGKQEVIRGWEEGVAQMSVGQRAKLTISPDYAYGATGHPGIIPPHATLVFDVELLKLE

FRB-Nfluc, split site at amino acid position 445 of SEQ ID NO: 2 (from UniProt P42345 2024-2113)
firefly luciferase signal upon exposure to rapamycin, fold over the cells not exposed to rapamycin (co-transfected 293T cells) [1]: 350 fold

FRB-Nfluc, split site at amino acid position 437 of SEQ ID NO: 2 (from UniProt P42345 2024-2113)
firefly luciferase signal upon exposure to rapamycin, fold over the cells not exposed to rapamycin (co-transfected 293T cells) [2]: 40 fold

FRB-Nfluc, split site at amino acid position 455 of SEQ ID NO: 2 (from UniProt P42345 2024-2113)
firefly luciferase signal upon exposure to rapamycin, fold over the cells not exposed to rapamycin (co-transfected 293T cells) [3]: 30 fold

FRB-Nfluc, split site at amino acid position 420 of SEQ ID NO: 2 (from UniProt P42345 2024-2113)
firefly luciferase signal upon exposure to rapamycin, fold over the cells not exposed to rapamycin (co-transfected 293T cells) [4]: 10 fold

B1: Nfluc (1-475 of SEQ ID NO: 2) (other)
chain: MEDAKNIKKGPAPFYPLEDGTAGEQLHKAMKRYALVPGTIAFTDAHIEVNITYAEYFEMSVRLAEAMKRYGLNTNHRIVVCSENSLQFFMPVLGALFIGVAVAPANDIYNERELLNSMNISQPTVVFVSKKGLQKILNVQKKLPIIQKIIIMDSKTDYQGFQSMYTFVTSHLPPGFNEYDFVPESFDRDKTIALIMNSSGSTGLPKGVALPHRTACVRFSHARDPIFGNQIIPDTAILSVVPFHHGFGMFTTLGYLICGFRVVLMYRFEEELFLRSLQDYKIQSALLVPTLFSFFAKSTLIDKYDLSNLHEIASGGAPLSKEVGEAVAKRFHLPGIRQGYGLTETTSAILITPEGDDKPGGVGKVVPFFEAKVVDLDTGKTLGVNQRGELCVRGPMIMSGYVNNPEATNALIDKDGWLHSDIAYWDEDEHFFIVDRLKSLIKYKGYQVAPAELESILLQHPNIFDAGVAGLPDDD
average of photon max across six animals, 72 h [5]: 1.8 P/cm^2/sec/sr
bioluminescence signal of implanted co-transfected 293T cells in living mice, 24 h [5]: 0.3 P/cm^2/sec/sr
average of photon max across six animals, 72 h [6]: 2.1 P/cm^2/sec/sr
average of photon max across six animals, 72 h [7]: 1.9 P/cm^2/sec/sr
bioluminescence signal of implanted co-transfected 293T cells in living mice, 24 h [7]: 0.3 P/cm^2/sec/sr
average of photon max across six animals, 72 h [8]: 0.7 P/cm^2/sec/sr
average of photon max across six animals, 72 h [9]: 1.1 P/cm^2/sec/sr
bioluminescence signal of implanted co-transfected 293T cells in living mice, 24 h [9]: 0.3 P/cm^2/sec/sr
luciferase signal against the combination Nfluc 1-475 / Cfluc 265-550 (cell culture and animal study) [9]: 2 fold less
average of photon max across six animals, 72 h [10]: 0.3 P/cm^2/sec/sr
